Experimental findings from PMC11436757, “BRCA2 stabilises RAD51 and DMC1 nucleoprotein filaments through a conserved interaction mode” (Nature Communications, 2024) are described below.

In one data set the target is T1, DMC1 ΔN (Homo sapiens, UniProt Q14565).
T1 construct: DMC1 ΔN (83-340) were cloned into pHAT4; His6 (TEV-cleavable) (N, cleaved yes); made in house; host or cells: E. coli BL21 (DE3)
T1 sequence (Q14565 83-340): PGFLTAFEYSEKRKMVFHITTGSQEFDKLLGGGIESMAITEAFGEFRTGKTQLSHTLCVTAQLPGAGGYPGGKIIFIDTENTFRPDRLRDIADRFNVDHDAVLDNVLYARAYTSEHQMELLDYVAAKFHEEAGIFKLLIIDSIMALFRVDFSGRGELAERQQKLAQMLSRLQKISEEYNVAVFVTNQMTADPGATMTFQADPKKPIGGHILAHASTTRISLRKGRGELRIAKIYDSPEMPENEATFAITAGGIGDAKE
The experiment in a line: Amylose pull-down of DMC1 ΔN with MBP-BRCA2 fusions. The class given is binding. The following applies: recombinant co-expression with MBP-BRCA2 fusion. An excerpt: (§1) For affinity pulldown experiments, MBP-fusions of BRCA2 fragments (Ex14, amino-acids 2387-2420, Ex14-Tr, amino acids 2401-2414, Ex27, amino acids 3270-3315, BRC4, amino acids 1519-1551) were cloned into pMAT11 vectors[54] and co-expressed with DMC1 ΔN, DMC1 ΔN loop mutant (in which DMC1 amino acids 147-GAGGYPG-153 and 178-NVDHDA-183 were replaced by the cognate sequences of RAD51 148-IDRGGGE-154 and 179-GLSGSD-184), RAD51 ΔN, RAD51 ΔN loop mutant (the reverse switch of DMC1 ΔN loop mutant), and RAD51. MBP-fusions and complexes were purified through amylose affinity chromatography.

The target of a further data set is T2, DMC1 ΔN loop mutant (Homo sapiens, UniProt Q14565, A148D/A183D/D180S/D182S/G147I/G149R/G153E/H181G/N178G/P152G/V179L/Y151G).
T2 construct: DMC1 ΔN (83-340) were cloned into pHAT4; made in house
T2 sequence (Q14565 83-340 G147I/A148D/G149R/Y151G/P152G/G153E/N178G/V179L/D180S/H181G/D182S/A183D limits assumed): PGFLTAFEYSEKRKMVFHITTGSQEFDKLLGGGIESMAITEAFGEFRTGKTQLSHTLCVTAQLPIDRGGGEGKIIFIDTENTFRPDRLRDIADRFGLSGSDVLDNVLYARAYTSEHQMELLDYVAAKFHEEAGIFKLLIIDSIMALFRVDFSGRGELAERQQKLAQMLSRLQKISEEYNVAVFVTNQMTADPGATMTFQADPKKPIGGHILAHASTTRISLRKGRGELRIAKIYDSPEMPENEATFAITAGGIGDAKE
Briefly: Amylose pull-down of DMC1 ΔN loop mutant with MBP-BRCA2 fusions. The class given is binding. The following applies: recombinant co-expression with MBP-BRCA2 fusion.
From the text: as §1

A further data set relates to DMC1 ΔN V179E. Briefly: Amylose pull-down of His-DMC1 ΔN V179E with MBP-BRCA2 fusions. The class given is binding, human. The settings on record: lysates mixed; MBP-BRCA2 fusion; 20 mM Tris pH 8.0, 500 mM KCl, 2 mM DTT. Here is the method:
(§2) For affinity experiments involving DMC1 ΔN V179E and F85E, MBP-fusions of BRCA2 fragments (Ex14, amino-acids 2387-2420, Ex14-Tr, amino acids 2401-2414, BRC4, amino acids 1519-1551) were cloned into pMAT11 vectors and DMC1 ΔN mutants (V179E or F85E) were cloned into pHAT4 vectors. Lysates of bacterial cultures expressing His6-DMC1 mutants or MBP-BRCA2 constructs were mixed, and complexes were purified through amylose affinity chromatography in 20 mM Tris pH 8.0, 500 mM KCl, 2 mM DTT and eluted using 30 mM D-maltose.

The test system of another data set is DMC1 ΔN F85E. Briefly: Amylose pull-down of His-DMC1 ΔN F85E (monomeric) with MBP-BRCA2 fusions. The class given is binding, human. The settings on record: lysates mixed; MBP-BRCA2 fusion; 20 mM Tris pH 8.0, 500 mM KCl, 2 mM DTT. Here is the method: as §2
The subject of the next data set is DMC1-ssDNA filaments. The experiment in a line: EMSA, BRC4-mediated disruption of DMC1-ssDNA filaments. The class given is biochemical, human. The following applies: TEA pH 7.5 + KCl; stoichiometric excess of BRC4 (5-fold, 10-fold elsewhere in the source). How it is done: Finally, we tested whether binding of BRCA2 Ex14 protects DMC1-ssDNA nucleoprotein filaments from BRC4-mediated disruption (Fig. 3c). […] Further, whilst the core PhePP interaction site is sufficient to stimulate DMC1-ssDNA nucleoprotein filament formation, surrounding amino-acids that are present within Ex14 (but not Ex14-Tr) are necessary to super-shift filaments and confer protection from BRC4-mediated disruption.
(§3) To form nucleoprotein filaments, DMC1 and RAD51 was incubated with fluorescent 100-base ssDNA (5’-FAM- […]-3’) at the concentrations indicated in the figures for 30 minutes at 4 °C in reaction buffer. For DMC1, reaction buffer is 25 mM TEA (triethanolamine) pH 7.5, 1 mM ATP, 2 mM MgCl2, 0.1 mg/ml BSA, 2 mM DTT, 200 mM KCl. […] Glycerol was added at a final concentration of 3%, and samples were analysed by electrophoresis on a 1% (w/v) (for DMC1) or 0.66% (w/v) (for RAD51) agarose gel in 0.5x TAE pH 8.0 at 20–40 V for ~4 h at 4 °C. DNA was detected by FAM using a Typhoon^TM FLA 9500 (GE Healthcare), with 473 nm laser at excitation wavelength 490 nm and emission wavelength 520 nm, using the LPB filter and a PMT voltage of 500 V. To analyse RAD51 nucleoprotein filaments assembled upon 100-base poly(dT) ssDNA, gels were stained post-run using SYBR^TM Gold Nucleic Acid Gel Stain (Invitrogen) and detected using a Typhoon^TM FLA 9500 (GE Healthcare).

Data set [1] deals with RAD51-ssDNA filaments. The experiment in a line: EMSA, BRC4-mediated disruption of RAD51-ssDNA filaments (random sequence ssDNA). It counts as biochemical. The settings on record: 100-nt random ssDNA; equimolar BRC4. Here is the method: as §3, with “KCl. For RAD51, reaction buffer is 50 mM TEA (triethanolamine), 2 mM ATP, 0.5 mM MgCl2, 2 mM DTT. For assays requiring incomplete nucleoprotein filament assembly, the reaction buffer consisted of 50 mM TAE (tris, acetate, EDTA) pH 7.5, 2 mM ATP, 2 mM MgCl2, 2 mM DTT. In nucleoprotein formation stimulation assays or supershift experiments, BRCA2Ex14 or BRCA2Ex14-AAA were added for a further 30 min at 4 °C.” for “KCl.”

Data set [2] relates to RAD51-ssDNA filaments. Briefly: EMSA, protection of RAD51-ssDNA filaments from BRC4-mediated disruption (random sequence ssDNA). It counts as biochemical. The settings on record: 100-nt random ssDNA; 10-fold excess of Ex27. How it is done:
as §3, with “KCl. For RAD51, reaction buffer is 50 mM TEA (triethanolamine), 2 mM ATP, 0.5 mM MgCl2, 2 mM DTT. For assays requiring incomplete nucleoprotein filament assembly, the reaction buffer consisted of 50 mM TAE (tris, acetate, EDTA) pH 7.5, 2 mM ATP, 2 mM MgCl2, 2 mM DTT. In nucleoprotein formation stimulation assays or supershift experiments, BRCA2Ex14 or BRCA2Ex14-AAA were added for a further 30 min at 4 °C.” for “KCl.”

For data set [3], the system named is RAD51 L180E-ssDNA filaments. Briefly: EMSA, BRC4-mediated disruption of RAD51 L180E-ssDNA filaments (random sequence ssDNA). The class given is biochemical. The settings on record: 100-nt random ssDNA. Here is the method: as §3, with “KCl. For RAD51, reaction buffer is 50 mM TEA (triethanolamine), 2 mM ATP, 0.5 mM MgCl2, 2 mM DTT. For assays requiring incomplete nucleoprotein filament assembly, the reaction buffer consisted of 50 mM TAE (tris, acetate, EDTA) pH 7.5, 2 mM ATP, 2 mM MgCl2, 2 mM DTT. In nucleoprotein formation stimulation assays or supershift experiments, BRCA2Ex14 or BRCA2Ex14-AAA were added for a further 30 min at 4 °C.” for “KCl.”

The target in a further data set is T3, DMC1;BRCA2 Ex14-Tr (Homo sapiens;Homo sapiens, UniProt Q14565;P51587 1-340;, |).
T3 sequence 1: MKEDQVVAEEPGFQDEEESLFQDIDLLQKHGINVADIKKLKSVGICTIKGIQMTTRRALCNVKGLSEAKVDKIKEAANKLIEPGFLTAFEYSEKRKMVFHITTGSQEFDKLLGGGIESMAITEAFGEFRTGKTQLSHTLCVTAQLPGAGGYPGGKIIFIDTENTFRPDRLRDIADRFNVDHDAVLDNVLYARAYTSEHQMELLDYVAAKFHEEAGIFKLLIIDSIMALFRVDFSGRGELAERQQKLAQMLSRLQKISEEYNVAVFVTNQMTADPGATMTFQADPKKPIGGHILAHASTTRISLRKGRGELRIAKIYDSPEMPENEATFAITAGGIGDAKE
T3 sequence 2: RPTKVFVPPFKTKS
Briefly: EMSA; TAE + Ex14-Tr; mostly stimulated filament formation; DMC1: 25 mM TEA (triethanolamine) pH 7.5, 200 mM KCl, 1 mM ATP, 2 mM MgCl2, 0.1 mg/ml BSA, 2 mM DTT, or 50 mM TAE pH 7.5, 2 mM ATP, 2 mM MgCl2, 2 mM DTT; RAD51: 50 mM TEA, 2 mM ATP, 0.5 mM MgCl2, 2 mM DTT; all 4 C, agarose gel in 0.5x TAE. The settings on record: tags: His6 removed by TEV;; label: 5'-FAM; single strand.

A further data set deals with T4, DMC1;BRCA2 Ex14 (Homo sapiens;Homo sapiens, UniProt Q14565;P51587 1-340;2387-2420, |).
T4 sequence 1: T3 sequence 1
T4 sequence 2: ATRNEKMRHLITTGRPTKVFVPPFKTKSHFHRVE
The experiment in a line: EMSA, BRC4 protection; TEA + KCl; 110 µM Ex14, 10-fold excess BRC4, protected; DMC1: 25 mM TEA (triethanolamine) pH 7.5, 200 mM KCl, 1 mM ATP, 2 mM MgCl2, 0.1 mg/ml BSA, 2 mM DTT, or 50 mM TAE pH 7.5, 2 mM ATP, 2 mM MgCl2, 2 mM DTT; RAD51: 50 mM TEA, 2 mM ATP, 0.5 mM MgCl2, 2 mM DTT; all 4 C, agarose gel in 0.5x TAE. The following applies: protein: recombinant;recombinant; tags: His6 removed by TEV;His6-MBP removed by TEV; label: 5'-FAM; single strand.

The next data set addresses RAD51;BRCA2 Ex27 (Homo sapiens?;Homo sapiens?, UniProt Q06609;P51587 1-339;3270-3315, |). Briefly: EMSA, BRC4 protection; 10-fold excess Ex27 + BRC4; protected, less complete than on poly(dT); DMC1: 25 mM TEA (triethanolamine) pH 7.5, 200 mM KCl, 1 mM ATP, 2 mM MgCl2, 0.1 mg/ml BSA, 2 mM DTT, or 50 mM TAE pH 7.5, 2 mM ATP, 2 mM MgCl2, 2 mM DTT; RAD51: 50 mM TEA, 2 mM ATP, 0.5 mM MgCl2, 2 mM DTT; all 4 C, agarose gel in 0.5x TAE. The settings on record: tags: ;; label: 5'-FAM; single strand.

In the next data set the target is T5, DMC1 (Homo sapiens, UniProt Q14565 1-340).
T5 sequence: T3 sequence 1
The experiment in a line: EMSA; TEA + 200 mM KCl, 1 mM ATP, 2 mM Mg2+; largely complete at 3 nt per protomer (11 µM DMC1); DMC1: 25 mM TEA (triethanolamine) pH 7.5, 200 mM KCl, 1 mM ATP, 2 mM MgCl2, 0.1 mg/ml BSA, 2 mM DTT, or 50 mM TAE pH 7.5, 2 mM ATP, 2 mM MgCl2, 2 mM DTT; RAD51: 50 mM TEA, 2 mM ATP, 0.5 mM MgCl2, 2 mM DTT; all 4 C, agarose gel in 0.5x TAE. The following applies: protein: recombinant; tags: His6 removed by TEV; chain copies: 8; label: 5'-FAM; single strand.

For “BRC4: BRCA2 BRC repeat 4 peptide, amino acids 1519-1551 (PTLLGFHTASGKKVKIAKESLDKVKNLFDEKEQ; not fully specified; left off: His6, end not stated, state not stated | MBP, end not stated, kept) [reference compound]”, the binding in pull-down entry with DMC1 ΔN is given as “bind”; with DMC1 ΔN loop mutant it was “retained its interaction”; in the data set with DMC1 ΔN V179E it was “retained binding”; with DMC1 ΔN F85E, “retained binding”. Besides, the “disruption of DMC1-ssDNA filaments” value in the data set on DMC1-ssDNA filaments was “completely disrupted”. In the data set with RAD51-ssDNA filaments [1], the “disruption of RAD51-ssDNA filaments” value is listed as “disrupted”. For the same molecule, the “protection of RAD51-ssDNA filaments from BRC4-mediated disruption” value in the data set on RAD51-ssDNA filaments [2] is “partially disrupt filaments”. In data set [3], the “disruption of RAD51 L180E-ssDNA filaments” value was “underwent similar disruption”.

B1: 100-nt random-sequence ssDNA (ssDNA)
DNA: AATTCTCATTTTACTTACCGGACGCTATTAGCAGTGGGTGAGCAAAAACAGGAAGGCAAAATGCCGCAAAAAAGGGAATAAGGGCGACACGGAAATGTTG
As to B1, the binding result with DMC1;BRCA2 Ex14-Tr, in the data set with DMC1;BRCA2 Ex14, in the data set with RAD51;BRCA2 Ex27 and with DMC1 was “binds” each time.
